Experimental data from patent US10100120B2, “Antibody which specifically binds to human CRTH2” (KYOWA HAKKO KIRIN CO., LTD, priority 2015, dated 2018).

What was measured:
Format in all cases: cell-based
human eosinophils [1] = test: Antagonist activity using shape change of human eosinophils as index (Example 19); conditions: DKPGD2 0.1-1000 nM, FIG. 16
Protocol: Eosinophils were separated from human peripheral blood in the same manner as in Example 11. The isolated human eosinophils were suspended with Dulbecco's phosphate buffered saline (hereinafter, referred to as D-PBS (−)) (NACALAI TESQUE, Inc.) and performed a reaction in a 5% CO2 incubator at 37° C. for 1 hour and 30 minutes. Thereafter, the cells were seeded in a 96-well plate at 2×10^5 cells/well using 10% FBS-containing RPMI1640. Next, an isotype control antibody [CELL LAB Rat IgG2b Isotype Control (Beckman Coulter Inc.)] at a final concentration of 10 μg/mL or Lym2 antibody; or small molecular CRTH2 antagonist 00000459 (Cayman Chemical) at a final concentration of 10 μM as a positive control, was added thereto to cause a reaction in a 5% CO2 incubator at 37° C. for 30 minutes.
Next, DKPGD2 (Cayman Chemical) at each of final concentrations of 0.1, 1, 10, 100, and 1000 nM was added thereto to cause a reaction in a 5% CO2 incubator at 37° C. for 60 minutes. After the reaction, the cells were washed twice with ice-cold PBS, Fixation Buffer (BD Biosciences) was added at 200 μL/well, and the resultant was suspended well and allowed to stand at 4° C. for 30 minutes. After that, the cells were washed twice with SM, and shape change of eosinophils was analyzed by flow cytometry (BD Biosciences, FACS CantoII).
The shape change of eosinophils was analyzed based on an increase in Forward Scatter Light (FSC) plot which is an index of the cell size, the cell surface area, or the cell diameter in the analysis using flow cytometry and the percentage (%) of eosinophils detected in the gate of high FSC was calculated based on the FSC of DKPGD2-untreated eosinophils.

human eosinophils [2] = test: Eosinophil depletion (cytotoxic) activity in human peripheral blood cells, flow cytometry; conditions: Example 8; 0.01-1000 ng/mL, 37° C., 20 hours; FIG. 3
Protocol: (§1) Human peripheral blood collected by adding a heparin sodium injection liquid was centrifuged at 4° C. and 1500 rpm for 30 minutes, and the plasma was recovered.
(§2) After the plasma was recovered, PBS (NACALAI TESQUE, Inc.) was added to the pellet containing the red blood up to the original volume of blood and the pellet was suspended. Next, to 1 mL of the suspension, 10 mL of hemolyzing solution [solution obtained by diluting 10×RBC Lysis buffer (eBioscience) 10 times with sterile water] was added to be mixed by inversion. The resultant was allowed to stand at room temperature for 10 minutes and centrifuged at room temperature and 1500 rpm for 5 minutes and washed twice with PBS after the supernatant was removed therefrom.
(§3) Thereafter, the cell pellet was suspended with the recovered plasma and the cells were seeded in a 48-well plate at 300 μL/well, each of chLym2, humanized Lym2 antibodies LV0HV0, LV0HV1, and LV0HV2a, or an isotype control antibody [IgG1 antibody prepared according to the method described in Example 5 using a vector encoding an anti-2,4-dinitrophenol (DNP) IgG1 antibody described in Clin Cancer Res 2005, 11(8), 3126 to 3135 (hereinafter, referred to as anti-DNP IgG1 antibody)] were added at each final concentrations of 1000, 100, 33, 11, 3.7, 1.2, 0.4, and 0.01 ng/mL to cause a reaction in a 5% CO2 incubator at 37° C. for 20 hours.
(§4) After the reaction, the cell fluid in each well was recovered, 10 mL of SM was added thereto, 200 μL per sample of CountBright Absolute Counting Beads, for flow cytometry (Molecular Probes) was added as control beads, and the fluid was centrifuged at 4° C. and 2000 rpm for 10 minutes, and then the supernatant was removed. The resultant was washed twice with SM, 10000 μg/mL of IgG from human serum (Sigma-Aldrich Co. LLC) diluted with SM was added at 300 μL/sample and suspended to cause a reaction at 4° C. for 30 minutes. […]
(§5) The cells were washed twice with SM, suspended by SM containing 1% of 7-AAD Staining Solution (BD Biosciences), allowed to stand at 4° C. for 10 minutes, and the fluorescent intensity was analyzed by flow cytometry (BD Biosciences, FACS CantoII).
(§6) Human eosinophils were detected as 7-AAD negative siglec8-PE positive fractions in granulocyte fractions of FSC-SSC deployment. Human basophils were detected as 7-AAD negative fractions, CD123-PC-Cy7 positive fractions, FcεRI-APC positive fractions in lymphocyte fractions of FSC-SSC deployment. The cell depletion activity was evaluated by analyzing the count number of each cell per a certain number of CountBright. […]

human basophils = test: Basophil depletion (cytotoxic) activity in human peripheral blood cells, flow cytometry; conditions: Example 8; 0.01-1000 ng/mL, 37° C., 20 hours; FIG. 3
Protocol: as §1, §2, §3, §4, §5, §6

Molecule | shape change of eosinophils induced by ligand (human eosinophils [1]; 37° C., 60 minutes) | inhibition of DKPGD2-dependent shape change of eosinophils (antagonist activity) (human eosinophils [1]; antibody 10 μg/mL or small molecule 10 μM) | cytotoxic activity against eosinophils (human eosinophils [2]) | cytotoxic activity against basophils (human basophils)
CCCCCC(=O)CC[C@H]1C(=O)C[C@H](O)[C@@H]1C/C=C\CCCC(=O)O [DKPGD2, 13, 14-dihydro-15-keto prostaglandin D2] | induced shape change of eosinophils in a concentration-dependent manner |  |  | 
Cc1c(Cc2ccc3ccccc3n2)c2cc(F)ccc2n1CC(=O)O [OC000459] |  | inhibited |  | 
LV0HV0: humanized Lym2 antibody, VL LV0 (SEQ ID NO: 33), VH HV0 (SEQ ID NO: 49) (antibody, V domains shown) VH: EVQLVESGGGVVQPGRSLRLSCAASGFTFSNYYMAWVRQAPGKGLEWVATISYDGSSTYYRDSVKGRFTISRDNAKNSLYLQMNSLRAEDTAVYYCARHRGYYYSGAGYFDYWGQGTMVTVSS VL: DIVMTQTPLSLPVTPGESASISCRSSQSLEYSDGYTYLEWYLQKPGQSPQVLIYGVSNRFSGVPDRFSGSGSGTDFTLKISRVEAEDVGVYYCFQATHDPLTFGQGTKLEIK |  |  | comparable to the chimeric Lym2 antibody chLym2 | comparable to the chimeric Lym2 antibody chLym2
LV0HV2a: humanized Lym2 antibody, VL LV0 (SEQ ID NO: 33), VH HV2a (SEQ ID NO: 53) (antibody, V domains shown) VH: EVQLVESGGGVVQPGRSLRLSCAASGFTFSNYYMAWVRQAPGKGLEWVATISYDGSSTYYRDSVKGRFTISRDNAKNSLYLQMNSLRAEDTATYYCARHRGYYYSGAGYFDYWGQGVMVTVSS VL: DIVMTQTPLSLPVTPGESASISCRSSQSLEYSDGYTYLEWYLQKPGQSPQVLIYGVSNRFSGVPDRFSGSGSGTDFTLKISRVEAEDVGVYYCFQATHDPLTFGQGTKLEIK |  |  | comparable to the chimeric Lym2 antibody chLym2 | comparable to the chimeric Lym2 antibody chLym2
